Source: US20250026827A1 (Alector, published 2025)
Substitutions are numbered along the chain they refer to.

Assays:
[1] = biological target: T1, human SIRPα domain 1 (D1) Fc fusion (human, UniProt P78324 32-149); experiment: Octet
T1 construct: also called human SIRPα D1-Fc; Human SIRPα Fc; not shown: C-terminal human IgG1 Fc

mouse SIRPα D1-Fc = biological target: T2, mouse SIRPα D1-Fc (mouse, UniProt P97797 32-150, limits assumed); experiment: Octet
T2 construct: domain: D1
T2 sequence (looked up): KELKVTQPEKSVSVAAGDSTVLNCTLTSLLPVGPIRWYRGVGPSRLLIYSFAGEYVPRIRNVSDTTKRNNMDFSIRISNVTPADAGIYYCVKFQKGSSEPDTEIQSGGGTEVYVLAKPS
Description: Briefly, Octet affinity measurements were performed by loading IgGs on-line onto AHQ sensors. Sensors were equilibrated off-line in assay buffer for 30 min and then monitored on-line for 60 seconds for baseline establishment. For avid binding measurement, sensors with loaded IgGs were exposed to 100 nM antigen (human SIRPα domain 1 (D1) Fc fusion or SIRPβ1 domain 1 (D1) Fc fusion) for 3 min, and then transferred to assay buffer for 3 min for off-rate measurement. Additional avid binding was determined by loading biotinylated SIRPβ1 monomer on SA sensors and exposing to 100 nM IgG in solution. Monovalent binding measurements were obtained by loading human SIRPα- or SIRPβ1-Fc fusion antigens onto AHQ sensor, followed by exposure to 100 nM anti-SIRPβ1 antibody Fab. Additional monovalent measurements were made by loading biotinylated human SIRPα or SIRPβ1 monomer to SA sensor followed by exposure to 100 nM Fab in solution. Kinetics data were fit using a 1:1 binding model in the data analysis software provided by ForteBio (ForteBio Data Analysis Software 7.0).

human SIRPα on cells [2] = biological target: T3, human SIRPα on cells (human, UniProt P78324 31-504); experiment: flow cytometry;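 as to FOB: antibodies tested at 1 µg/ml for 30 min on ice against receptor-expressing cells, detected with a PE-labelled secondary antibody, read as mean fluorescence intensity relative to background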
T3 construct: Whole entry

[3] = biological target: T4, mouse SIRPβ1 on CHO cells (mouse); experiment: flow cytometry;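 as to FOB: antibodies tested at 1 µg/ml for 30 min on ice against receptor-expressing cells, detected with a PE-labelled secondary antibody, read as mean fluorescence intensity relative to background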
T4 construct: Whole entry
T4 chain: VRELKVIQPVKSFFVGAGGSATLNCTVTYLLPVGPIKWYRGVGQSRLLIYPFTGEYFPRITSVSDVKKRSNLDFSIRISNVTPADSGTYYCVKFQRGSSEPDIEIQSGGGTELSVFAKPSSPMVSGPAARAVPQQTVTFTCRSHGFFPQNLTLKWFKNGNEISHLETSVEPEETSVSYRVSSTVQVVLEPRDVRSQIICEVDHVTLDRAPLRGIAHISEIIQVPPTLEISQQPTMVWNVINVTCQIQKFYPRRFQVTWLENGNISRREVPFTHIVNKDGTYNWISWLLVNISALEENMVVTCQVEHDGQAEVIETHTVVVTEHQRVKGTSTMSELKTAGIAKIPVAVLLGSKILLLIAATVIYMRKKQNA

mouse SIRPα on cells [4] = biological target: T5, mouse SIRPα on cells (mouse, UniProt P97797 32-513); experiment: flow cytometry;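 as to FOB: antibodies tested at 1 µg/ml for 30 min on ice against receptor-expressing cells, detected with a PE-labelled secondary antibody, read as mean fluorescence intensity relative to background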
T5 construct: whole, on cells
T5 sequence (looked up): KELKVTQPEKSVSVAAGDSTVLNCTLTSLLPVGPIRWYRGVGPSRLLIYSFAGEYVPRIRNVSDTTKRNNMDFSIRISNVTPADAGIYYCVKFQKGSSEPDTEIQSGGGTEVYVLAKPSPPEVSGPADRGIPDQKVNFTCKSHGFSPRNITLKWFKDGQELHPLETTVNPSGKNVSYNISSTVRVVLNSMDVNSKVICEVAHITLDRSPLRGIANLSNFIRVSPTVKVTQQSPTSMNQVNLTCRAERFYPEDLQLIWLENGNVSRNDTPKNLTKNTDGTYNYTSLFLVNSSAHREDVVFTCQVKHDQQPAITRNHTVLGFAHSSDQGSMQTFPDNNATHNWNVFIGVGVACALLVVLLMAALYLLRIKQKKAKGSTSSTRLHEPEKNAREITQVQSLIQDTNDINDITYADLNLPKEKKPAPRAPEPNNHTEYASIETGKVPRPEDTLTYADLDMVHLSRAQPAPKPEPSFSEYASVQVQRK

[5] = biological target: T6, human SIRPβ1 isoform 1 on cells (human, UniProt O00241 30-398); experiment: flow cytometry;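 also: antibodies tested at 1 µg/ml for 30 min on ice against receptor-expressing cells, detected with a PE-labelled secondary antibody, read as mean fluorescence intensity relative to background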
T6 construct: On CHO cells (low level), on BWZ/BW5147.G.1.4 cells (reporter cells co-express human DAP12) or on primary human myeloid cells; also called huSIRPβ1; BWZ-huSIRPβ1
Description: (§1) Initial characterization of anti-SIRPβ1 antibodies involved determining their ability to bind cell lines expressing human or mouse SIRPβ1. Cells were harvested, plated at 10⁶/ml in a 96-well plate, washed, and incubated in 100 μl FACS buffer containing 1 μg/ml anti-SIRPβ1 antibody for 0.5 hour on ice. Cells were then washed twice and incubated in 100 μl FACS buffer containing 0.5 μg/ml PE-conjugated secondary antibody for 30 minutes on ice. Cells were washed twice in cold FACS buffer and acquired on a BD FACS Canto. Data analysis and calculation of mean fluorescence intensity (MFI) values or 00 positive cells was performed with FlowJo (TreeStar) software version 10.0.7.
(§2) As a negative control, the anti-SIRPβ1 antibodies were also screened for surface binding to CHO cells overexpressing recombinant mouse SIRPβ31. […] Given the high sequence similarity between receptors of the SIRPβ family, anti-SIRPβ1 antibodies were also screened for cross-reactivity to human and mouse SIRPα.

human SIRPα on cells [6] = biological target: T3, human SIRPα on cells; experiment: flow cytometry; remark: listed apart in the source
Description: as §1, §2

[7] = biological target: T4, mouse SIRPβ1 on CHO cells; experiment: flow cytometry
Description: as §1, §2

mouse SIRPα on cells [8] = biological target: T5, mouse SIRPα on cells; experiment: flow cytometry; remark: listed apart in the source
Description: as §1, §2

[9] = biological target: T7, human SIRPβ1 domain 1 (D1) Fc fusion (human, UniProt O00241 30-148); experiment: Octet, IgG avid
T7 construct: Made in HEK293/T cells with a heterologous signal peptide; also called Human SIRPβ1 D1-Fc; Human SIRPβ1-Fc; not shown: C-terminal human IgG1 Fc
T7 sequence (O00241 30-148 limits assumed): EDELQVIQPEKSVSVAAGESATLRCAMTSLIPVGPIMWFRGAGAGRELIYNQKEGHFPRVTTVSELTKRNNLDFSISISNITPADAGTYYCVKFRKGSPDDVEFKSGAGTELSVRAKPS

T6 sequence (O00241 30-398): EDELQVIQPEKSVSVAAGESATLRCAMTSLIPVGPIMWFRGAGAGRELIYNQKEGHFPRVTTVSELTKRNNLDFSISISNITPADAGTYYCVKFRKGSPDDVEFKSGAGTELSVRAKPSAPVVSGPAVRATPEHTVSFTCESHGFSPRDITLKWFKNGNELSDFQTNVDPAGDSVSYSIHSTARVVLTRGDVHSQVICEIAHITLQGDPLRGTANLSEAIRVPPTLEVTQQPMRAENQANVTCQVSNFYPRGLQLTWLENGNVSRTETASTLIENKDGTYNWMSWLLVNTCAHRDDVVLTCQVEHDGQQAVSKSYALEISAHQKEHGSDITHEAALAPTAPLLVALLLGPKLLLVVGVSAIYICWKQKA

B1: SB-11 (antibody, V domains shown)
VH: QVQLVQSGAEVKKPGSSVKVSCKASGGTFSNYAISWVRQAPGQGLEWMGGIIPIFGTANYAQKFQGRVTITADESTSTAYMELSSLRSEDTAVYYCARPVDSSSYSLGYYYGMDVWGKGTTVTVSS
VL: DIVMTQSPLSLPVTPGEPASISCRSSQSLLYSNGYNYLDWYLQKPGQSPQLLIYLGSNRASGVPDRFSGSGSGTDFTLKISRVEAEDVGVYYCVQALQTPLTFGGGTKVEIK
notes: IgG
binding result [1]: no binding (tested: 100 nM) | binding result (mouse SIRPα D1-Fc): no binding (tested: 100 nM) | binding result (human SIRPα on cells [2]): no binding (tested: 1 ug/ml) | binding result [3]: no binding (tested: 1 ug/ml) | binding result (mouse SIRPα on cells [4]): no binding (tested: 1 ug/ml) | FOB [5]: 6.3 fold over background | FOB (human SIRPα on cells [6]): 2.3 fold over background | FOB [7]: 1.2 fold over background | FOB (mouse SIRPα on cells [8]): 0.9 fold over background | Kd [9]: 3.69 nM

B2: SB-21 (antibody, V domains shown)
VH: QVQLVQSGAEVKKPGASVKVSCKASGYTFTSNGISWVRQAPGQGLEWMGWISAYNGNTNYAQKLQGRVTMTTDTSTSTAYMELRSLRSDDTAVYYCARVGNMDQEYFDLWGRGTLVTVSS
VL: not shown
notes: IgG
binding result [1]: no binding (tested: 100 nM) | binding result (mouse SIRPα D1-Fc): no binding (tested: 100 nM) | binding result (human SIRPα on cells [2]): no binding (tested: 1 ug/ml) | binding result [3]: no binding (tested: 1 ug/ml) | binding result (mouse SIRPα on cells [4]): no binding (tested: 1 ug/ml) | FOB [5]: 1.9 fold over background | FOB (human SIRPα on cells [6]): 2 fold over background | FOB [7]: 1.3 fold over background | FOB (mouse SIRPα on cells [8]): 1.2 fold over background | Kd [9]: 5.86 nM

B3: SB-12 (antibody, V domains shown)
VH: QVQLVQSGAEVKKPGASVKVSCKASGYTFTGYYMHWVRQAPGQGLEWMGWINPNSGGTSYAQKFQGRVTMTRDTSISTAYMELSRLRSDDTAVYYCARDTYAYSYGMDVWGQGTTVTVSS
VL: EIVMTQSPATLSVSPGERATLSCRASQSVSSNLAWYQQKPGQAPRLLIYSASTRATGIPARFSGSGSGTEFTLTISSLQSEDFAVYYCQQLDNLPYTFGGGTKVEIK
notes: IgG
binding result [1]: no binding (tested: 100 nM) | binding result (mouse SIRPα D1-Fc): no binding (tested: 100 nM) | binding result (human SIRPα on cells [2]): no binding (tested: 1 ug/ml) | binding result [3]: no binding (tested: 1 ug/ml) | binding result (mouse SIRPα on cells [4]): no binding (tested: 1 ug/ml) | FOB [5]: 1.6 fold over background | FOB (human SIRPα on cells [6]): 2 fold over background | FOB [7]: 1.3 fold over background | FOB (mouse SIRPα on cells [8]): 1.2 fold over background | Kd [9]: 4.94 nM

B4: SB-26 (antibody, V domains shown)
VH: QVQLVQSGAEVKKPGSSVKVSCKASGGTFSSYAISWVRQAPGQGLEWMGGIIPIFGTANYAQKFQGRVTITADESTSTAYMELSSLRSEDTAVYYCARDGSAGRQEHGMDVWGQGTTVTVSS
VL: not shown
notes: IgG
binding result [1]: no binding (tested: 100 nM) | binding result (mouse SIRPα D1-Fc): no binding (tested: 100 nM) | binding result (human SIRPα on cells [2]): no binding (tested: 1 ug/ml) | binding result [3]: no binding (tested: 1 ug/ml) | binding result (mouse SIRPα on cells [4]): no binding (tested: 1 ug/ml) | FOB [5]: 2 fold over background | FOB (human SIRPα on cells [6]): 2.1 fold over background | FOB [7]: 1.3 fold over background | FOB (mouse SIRPα on cells [8]): 1.2 fold over background | Kd [9]: 6.17 nM

B5: SB-17 (antibody, V domains shown)
VH: QVQLVQSGAEVKKPGASVKVSCKASGYTFTSYGISWVRQAPGQGLEWMGWISAYNGNTNYAQKLQGRVTMTTDTSTSTAYMELRSLRSDDTAVYYCARGPLLYGDYHVRYGMDVWGQGTTVTVSS
VL: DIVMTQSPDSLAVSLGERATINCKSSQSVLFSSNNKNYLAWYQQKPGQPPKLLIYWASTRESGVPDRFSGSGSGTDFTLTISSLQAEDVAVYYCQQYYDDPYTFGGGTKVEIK
notes: IgG
binding result [1]: no binding (tested: 100 nM) | binding result (mouse SIRPα D1-Fc): no binding (tested: 100 nM) | binding result (human SIRPα on cells [2]): no binding (tested: 1 ug/ml) | binding result [3]: no binding (tested: 1 ug/ml) | binding result (mouse SIRPα on cells [4]): no binding (tested: 1 ug/ml) | FOB [5]: 2.8 fold over background | FOB (human SIRPα on cells [6]): 2.5 fold over background | FOB [7]: 1.3 fold over background | FOB (mouse SIRPα on cells [8]): 1.6 fold over background | Kd [9]: 3.32 nM

B6: SB-9 (antibody, V domains shown)
VH: B5 VH with S35H, G99D, P100G, L102H, H107I, R109Y
VL: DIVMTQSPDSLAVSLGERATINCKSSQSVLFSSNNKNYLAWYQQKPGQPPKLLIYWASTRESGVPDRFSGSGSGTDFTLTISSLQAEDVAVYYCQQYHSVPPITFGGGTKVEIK
notes: IgG
binding result [1]: no binding (tested: 100 nM) | binding result (mouse SIRPα D1-Fc): no binding (tested: 100 nM) | binding result (human SIRPα on cells [2]): no binding (tested: 1 ug/ml) | binding result [3]: no binding (tested: 1 ug/ml) | binding result (mouse SIRPα on cells [4]): no binding (tested: 1 ug/ml) | FOB [5]: 1.8 fold over background | FOB (human SIRPα on cells [6]): 2.1 fold over background | FOB [7]: 1 fold over background | FOB (mouse SIRPα on cells [8]): 0.8 fold over background | Kd [9]: 3.66 nM

B7: SB-31 (antibody, V domains shown)
VH: QVQLVQSGAEVKKPGASVKVSCKASGYTFTSYYMHWVRQAPGQGLEWMGIINPGGGSTSYAQKFQGRVTMTRDTSTSTVYMELSSLRSEDTAVYYCAREGLYSSGWYIDVWGQGTLVTVSS
VL: DIQMTQSPSSVSASVGDRVTITCRASQGISSWLAWYQQKPGKAPKLLIYAASSLQSGVPSRFSGSGSGTDFTLTISSLQPEDFATYYCQQAVSHPFTFGGGTKVEIK
notes: IgG
binding result [1]: no binding (tested: 100 nM) | binding result (mouse SIRPα D1-Fc): no binding (tested: 100 nM) | binding result (human SIRPα on cells [2]): no binding (tested: 1 ug/ml) | binding result [3]: no binding (tested: 1 ug/ml) | binding result (mouse SIRPα on cells [4]): no binding (tested: 1 ug/ml) | FOB [5]: 3.1 fold over background | FOB (human SIRPα on cells [6]): 1.8 fold over background | FOB [7]: 1.4 fold over background | FOB (mouse SIRPα on cells [8]): 1 fold over background | Kd [9]: 3.75 nM

B8: SB-33 (antibody, V domains shown)
VH: EVQLVESGGGLVQPGGSLRLSCAASGFTVSSNYMSWVRQAPGKGLEWVSVIYSGGSTYYADSVKGRFTISRDNSKNTLYLQMNSLRAEDTAVYYCARGQYTGSLDVWGQGTMVTVSS
VL: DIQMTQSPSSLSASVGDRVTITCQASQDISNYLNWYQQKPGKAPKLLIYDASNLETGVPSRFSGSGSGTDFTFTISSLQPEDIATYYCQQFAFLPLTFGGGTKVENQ
notes: IgG
binding result [1]: no binding (tested: 100 nM) | binding result (mouse SIRPα D1-Fc): no binding (tested: 100 nM) | binding result (human SIRPα on cells [2]): no binding (tested: 1 ug/ml) | binding result [3]: no binding (tested: 1 ug/ml) | binding result (mouse SIRPα on cells [4]): no binding (tested: 1 ug/ml) | FOB [5]: 1.4 fold over background | FOB (human SIRPα on cells [6]): 2.2 fold over background | FOB [7]: 1.3 fold over background | FOB (mouse SIRPα on cells [8]): 1.4 fold over background | Kd [9]: 9.23 nM

B9: SB-29 (antibody, V domains shown)
VH: QVQLVQSGAEVKKPGSSVKVSCKASGGTFSSYAISWVRQAPGQGLEWMGSIIPIFGTANYAQKFQGRVTITADESTSTAYMELSSLRSEDTAVYYCARAPYGSSSGYGYFDLWGRGTLVTVSS
VL: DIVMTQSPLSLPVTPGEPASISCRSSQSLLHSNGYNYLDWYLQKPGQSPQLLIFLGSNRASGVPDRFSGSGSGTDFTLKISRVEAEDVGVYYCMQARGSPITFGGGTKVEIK
notes: IgG
binding result [1]: no binding (tested: 100 nM) | binding result (mouse SIRPα D1-Fc): no binding (tested: 100 nM) | binding result (human SIRPα on cells [2]): no binding (tested: 1 ug/ml) | binding result [3]: no binding (tested: 1 ug/ml) | binding result (mouse SIRPα on cells [4]): no binding (tested: 1 ug/ml) | FOB [5]: 1.8 fold over background | FOB (human SIRPα on cells [6]): 1.9 fold over background | FOB [7]: 1.2 fold over background | FOB (mouse SIRPα on cells [8]): 0.9 fold over background | Kd [9]: 10.7 nM

B10: SB-28 (antibody, V domains shown)
VH: QLQLQESGPGLVKPSETLSLTCTVSGGSISSSSYYWGWIRQPPGKGLEWIGSISYSGSTYYNPSLKSRVTISVDTSKNQFSLKLSSVTAADTAVYYCARDPRDYSSGSSGGGWGYFDLWGRGTLVTVSS
VL: EIVLTQSPGTLSLSPGERATLSCRASQSVSSSYLAWYQQKPGQAPRLLIYGASSRATGIPDRFSGSGSGTDFTLTISRLEPEDFAVYYCQQDGNFPLTFGGGTKVEIK
notes: IgG
binding result [1]: no binding (tested: 100 nM) | binding result (mouse SIRPα D1-Fc): no binding (tested: 100 nM) | binding result (human SIRPα on cells [2]): no binding (tested: 1 ug/ml) | binding result [3]: no binding (tested: 1 ug/ml) | binding result (mouse SIRPα on cells [4]): no binding (tested: 1 ug/ml) | FOB [5]: 4.1 fold over background | FOB (human SIRPα on cells [6]): 2.1 fold over background | FOB [7]: 1.2 fold over background | FOB (mouse SIRPα on cells [8]): 1 fold over background | Kd [9]: 5.59 nM

B11: SB-19 (antibody, V domains shown)
VH: QVQLVQSGAEVKKPGSSVKVSCKASGGTFSSYAISWVRQAPGQGLEWMGGIIPIFGTANYAQKFQGRVTITADESTSTAYMELSSLRSEDTAVYYCARDGGGGYAYEYFQHWGQGTLVTVSS
VL: not shown
notes: IgG
binding result [1]: no binding (tested: 100 nM) | binding result (mouse SIRPα D1-Fc): no binding (tested: 100 nM) | binding result (human SIRPα on cells [2]): no binding (tested: 1 ug/ml) | binding result [3]: no binding (tested: 1 ug/ml) | binding result (mouse SIRPα on cells [4]): no binding (tested: 1 ug/ml) | FOB [5]: 1.8 fold over background | FOB (human SIRPα on cells [6]): 2.2 fold over background | FOB [7]: 1.3 fold over background | FOB (mouse SIRPα on cells [8]): 0.9 fold over background | Kd [9]: 7.41 nM
